“Also recorded” adds a separate entry of the source. Read-outs that look alike come from different tables or passages of the source. Where no end group is shown, it is not given here. The star is where a group is joined. RhodamineB = CCN(CC)c1ccc2c(-c3ccccc3C(=O)*)c3ccc(=[N+](CC)CC)cc-3oc2c1
Columns and labels:
[1] = molecular target: Crumbs CTD (UniProt P10040); settings: cited from earlier work
[2] = molecular target: Par-6; settings: Cdc42-GTP:Par-6; cited from earlier work
[3] = tested on: Par-6 PDZ^156–255; test: 1H-15N HSQC NMR titration of PDZ^156–255 with peptide; format: binding, D. melanogaster; settings: 25 °C, 0.1–0.25 mM 15N-labeled protein, 90% H2O/10% D2O, pH 5.5
[4] = molecular target: disulfide-stabilized Par-6 CRIB-PDZ (CRIB-PDZ^Q144C/L164C) (D. melanogaster); test: ITC
[5] = molecular target: Pals1 (UniProt Q8N3R9); settings: cited from earlier work
Chain of Pals1 (Q8N3R9 whole entry, the tested form may be a part): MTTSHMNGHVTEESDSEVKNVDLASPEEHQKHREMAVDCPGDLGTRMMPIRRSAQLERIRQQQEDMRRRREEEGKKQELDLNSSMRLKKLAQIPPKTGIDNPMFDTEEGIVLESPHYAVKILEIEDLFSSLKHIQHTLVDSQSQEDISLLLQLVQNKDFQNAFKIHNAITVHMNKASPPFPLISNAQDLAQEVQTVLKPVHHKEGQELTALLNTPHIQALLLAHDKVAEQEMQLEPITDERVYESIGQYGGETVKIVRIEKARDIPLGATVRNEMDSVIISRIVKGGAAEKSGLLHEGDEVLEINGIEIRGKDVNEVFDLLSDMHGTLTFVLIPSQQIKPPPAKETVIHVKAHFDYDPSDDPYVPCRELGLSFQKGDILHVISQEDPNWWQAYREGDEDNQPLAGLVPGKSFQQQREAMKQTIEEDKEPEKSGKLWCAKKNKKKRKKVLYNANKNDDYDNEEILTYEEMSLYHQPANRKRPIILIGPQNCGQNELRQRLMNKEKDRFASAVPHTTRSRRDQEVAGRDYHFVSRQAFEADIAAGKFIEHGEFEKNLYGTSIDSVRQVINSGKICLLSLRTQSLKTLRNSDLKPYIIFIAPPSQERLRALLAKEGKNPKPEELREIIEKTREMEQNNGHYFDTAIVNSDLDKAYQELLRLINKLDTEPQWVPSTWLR

[6] = molecular target: Par-6 PDZ domain (residues 156–255) (D. melanogaster) (UniProt O97111); test: fluorescence polarisation
[7] = molecular target: disulfide-stabilized Par-6 CRIB-PDZ (CRIB-PDZ^Q144C/L164C) (D. melanogaster); test: fluorescence polarisation
[8] = molecular target: Par-6 CRIB-PDZ module (CRIB-PDZ^130–255) (D. melanogaster) (UniProt O97111); test: fluorescence polarisation
[9] = molecular target: Cdc42:CRIB-PDZ^130–255 complex (Cdc42 loaded with GMPPNP) ( | D. melanogaster, UniProt P60953 1-191; O97111 130-255); test: fluorescence polarisation
[10] = molecular target: Par-6 CRIB-PDZ module (CRIB-PDZ^130–255) (D. melanogaster) (UniProt O97111); test: fluorescence polarisation; remark: listed apart in the source

Chain of Crumbs CTD (P10040 2110-2146): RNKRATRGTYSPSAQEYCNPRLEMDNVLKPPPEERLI

Pals1 PDZ-SH3-GK (from UniProt Q8N3R9)
Kd [1]: 0.1 µM

Cdc42-GTP: monomeric GTPase Cdc42 bound to GTP; binds the CRIB module of Par-6
Kd [2]: ~0.05 µM
binding energy [2]: ~ 10 kcal/mol

LPPEERLI [LPPEERLI]
HSQC titration behaviour / binding mode [3]: Significant shifts were observed for many amino acids in and near the PDZ ligand binding cleft; also recorded: consistent with binding at a second, low affinity site

VKESLV peptide
Kd [4]: 17 µM
dH [4]: -3.4 kcal/mol
stoichiometry N [4]: 1.09

Par-6 CRIB-PDZ (from UniProt Q9NPB6)
Kd [5]: 6 µM

B1: modified Crumbs peptide lacking the proline residues (GEERLI) (peptide)
peptide: GEERLI
Kd [4]: 1.9 µM
dH [4]: -7.21 kcal/mol
stoichiometry N [4]: 1.05

B2: N-terminally Rhodamine B-labeled VKESLV peptide (peptide)
peptide: RhodamineB-VKESLV
Kd [6]: 72 µM
Kd [7]: 13 µM
Kd [8]: 54 µM
Kd [9]: 6 µM

B3: N-terminally Rhodamine B-labeled GEERLI peptide (peptide)
peptide: RhodamineB-GEERLI
Kd [6]: 12 µM
Kd [7]: 2.5 µM
Kd [8]: 7.3 µM
Kd [9]: 1.2 µM
Kd [10]: 7.2 µM
